Data taken from publication PMC11921379, “TK2268 encodes the major aminotransferase involved in the conversion from oxaloacetic acid to aspartic acid in Thermococcus kodakarensis” (Applied and Environmental Microbiology, 2025).
One block for each molecule: values may come before it.

What was measured:
[1] = biological target: T1, TK2268p (TK2268 protein) (Thermococcus kodakarensis, UniProt Q5JHU0); assay: initial velocity, HPLC after o-phthalaldehyde derivatization; substrate inhibition fit; format: biochemical; details: substrate inhibition constant, second site (second substrate binding to enzyme-substrate complex), 20 µM PLP, 50 mM HEPES pH 7.5, 80°C
T1 construct: full-length, C-terminal His6-tag, overexpressed homologously in T. kodakarensis, His GraviTrap and gel filtration
Excerpt: (§1) initial velocity, HPLC after o-phthalaldehyde derivatization; substrate inhibition fit on TK2268p (TK2268 protein)

[2] = substrate: O=C(O)CCC(=O)C(=O)O; assay: as above; format: biochemical, Thermococcus kodakarensis; details: amino acceptor, 10 mM Asp, 20 µM PLP, 50 mM HEPES pH 7.5, 80°C, substrate inhibition model, Ks1 described as dissociation constant of first substrate
Excerpt: as §1

[3] = substrate: N[C@@H](CCC(=O)O)C(=O)O; assay: initial velocity, HPLC after o-phthalaldehyde derivatization; format: biochemical, Thermococcus kodakarensis; details: amino donor, 10 mM oxaloacetate, 20 µM PLP, 50 mM HEPES pH 7.5, 80°C
Excerpt: initial velocity, HPLC after o-phthalaldehyde derivatization on TK2268p (TK2268 protein)

[4] = substrate: O=C(O)CC(=O)C(=O)O; assay: purified protein; format: biochemical, Thermococcus kodakarensis; details: amino acceptor, 4 mM glutamate, 20 µM PLP, 50 mM HEPES pH 7.5, 80°C, substrate inhibition model, Ks1 described as dissociation constant of first substrate
[5] = substrate: N[C@@H](CC(=O)O)C(=O)O; assay: purified protein; details: amino donor, 10 mM 2-oxoglutarate, 20 µM PLP, 50 mM HEPES pH 7.5, 80°C

Km ([1]; 4 mM glutamate): 13.2 ± 1.2 mM
Molecule: O=C(O)CC(=O)C(=O)O [OAA, oxaloacetate]

Km ([1]; 10 mM Asp): 5.9 ± 1.6 mM
Molecule: O=C(O)CCC(=O)C(=O)O [2-OG, 2-oxoglutarate]

B1: TK2268p (TK2268 protein) (Thermococcus kodakarensis KOD1) (protein)
chain: MRYKKRKYFMAGRINILQRSKIRELFEKASKMENVISLGIGEPDFDTPEVIKEAAKRAIDEGYTHYTPNAGIPEFREAIAEYYKEFYNVDVDMNNIIVTAGAYEATYLAFESILEQGDDVIIPDPAFVCYVEDAKIAEAGIIRIPLREENKFRIDPDELLEAITKRTRMIVMNYPNNPTGAIMKKDVAKAIADIAQDYNIYILSDEPYEHFLYEGARHHPMIKYAPDNTILANSFSKTFAMTGWRLGFAIAPEQVIRDMIKLHAYVIGNVTSFIQIAGITALRDKRSWEAVERMRQVYDERRKLVLKYLNDMPHITPFRPKGAFYIWAKIDPELDMTSEDFAEWLLENAGVVVIPGTAFGRQGEGWIRISYATEKEKLIEAMERMKEALSKL
notes: full-length, C-terminal His6-tag, overexpressed homologously in T. kodakarensis, His GraviTrap and gel filtration
Km [2]: 38.8 ± 9.6 mM | Vmax [2]: 1040 ± 230 µmol/min/mg | kcat [2]: 781 ± 244 s⁻¹ | kcat/Km [2]: 20100 M⁻¹ s⁻¹ | Km [3]: 3.4 ± 0.3 mM | Vmax [3]: 443 µmol/min/mg | kcat [3]: 333 ± 12 s⁻¹ | kcat/Km [3]: 97800 M⁻¹ s⁻¹ | Km [4]: 1.3 ± 0.1 mM | Vmax [4]: 360 µmol/min/mg | kcat [4]: 270 ± 16 s⁻¹ | kcat/Km [4]: 208000 M⁻¹ s⁻¹ | Km [5]: 10.3 ± 0.5 mM | Vmax [5]: 232 µmol/min/mg | kcat [5]: 175 s⁻¹ | kcat/Km [5]: 17000 M⁻¹ s⁻¹
